Measurements as given in US20170240883A1, “CYCLIC PEPTIDES EXPRESSED BY A GENETIC PACKAGE” (Miti Biosystems GmbH, priority 2014, published 2017).

Biological target: T1, Human Plasma Kallikrein (Homo sapiens, UniProt P03952)
T1 construct: purchased Molecular Innovations, Inc, USA
Experiment: Phage selection of leader-free SynLib1 library modified by Celf ProcM enzyme-leader fusions on biotinylated kallikrein (output titre)
Format: binding
Details: for difference in titre using 9.75 nM kallikrein and using 0 nM kallikrein: R3
Method: Human Plasma Kallikrein (Molecular Innovations, Inc, USA) at 1.15 mg/ml (13 μM) solution in 4 mM acetate, 150 mM NaCl, pH 5.3 was biotinylated using NHS-PEG4-Biotin from the EZ-link micro-PEO4-biotinylation kit (Pierce Biotechnology, USA). 680 μl of water was added to the contents of the pre-weighed vial of biotinylation reagent to make a 5 mM solution. 1 μl of this solution was added to 100 μl of the kallikrein solution. This was incubated at RT for 1 hour prior to the separation of the biotinylated protein from the unreacted biotin, using a 2 ml Spin Desalting column (Pierce Biotechnology, USA). The volume of the kallikrein was made up to 350 μl with PBS (Formedium Ltd, UK) and was loaded onto the spin column which had been equilibrated with PBS (as per the manufacturer's instructions). When this solution had been absorbed into the column matrix, a further 50 μl of PBS was added on top and the column was spun in a centrifuge at 1000 g for 2 min. 395 μl of solution was collected, making the concentration of the biotinylated kallikrein about 3.25 μM.
150 μl of stock leader-free SynLib1 library (4.5e11 phage per μl) was added to 1850 μl of TE buffer, 2 μl 1 M TCEP (Melford Biolaboratories Ltd, UK) and incubated at RT for 20 minutes to reduce the peptides on the phage. 400 μl of 2.5 M NaCl, 20% w/v PEG 8000 was added, incubated at RT for five minutes and the precipitated phages were collected by centrifugation at 15000 g for five minutes. The supernatant was discarded and the phages were resuspended in 150 μl of 25 mM Tris pH 7.5 (Sigma Aldrich, Austria), 1 μM TCEP.
Selections are performed by removing streptavidin-binding clones by pre-exposing the library to streptavidin resin, which is then discarded, mixing the library with decreasing concentrations of biotinylated target for an hour at each round of selection, capture of the biotinylated target and thereby any phage binding the target with magnetic streptavidin resin followed by extensive washing of the resin. Finally, the washed resin has the phage eluted from the target by exposure to a low pH solution, neutralisation of the solution and infection of E. coli by the eluted phage.
Round 1 (R1) of the selection was performed by adding 50 μl of LodeStars streptavidin resin (Agilent Technologies, USA), from which the liquid had been removed by magnetic capture, to the modified phage solution for 30 minutes to capture the peptide sequence that bind to streptavidin (deselection). The resin was captured magnetically and the phage-containing supernatant was collected and made up to 500 μl with 25 mM Tris pH 7.5, 0.05% Tween 20 (Melford Biolaboratories Ltd, UK). Biotinylated kallikrein was added to 100 nM, and mixed at RT for 1 hour prior to processing on a KingFisher mL (Thermo Fisher, Austria) magnetic particle washer. The processing involved the KingFisher transferring 25 μl of streptavidin resin to the phage solution and mixing for five minutes. The resin/phage were then collected and washed in 8×1 ml of PBS+0.05% Tween 20 (PBST). The resin was then mixed in 50 μl of 50 mM glycine pH 2.2 (Melford Biolaboratories Ltd, UK) for five minutes to elute the phage and the resin was removed. The phage-containing supernatant was neutralised with 10 μl of 1 M Tris pH 8.0 and added to 1 ml of TG1 cells at A600 of 0.6 followed by incubation at 37° C., 250 rpm for 1 hour. The phage titre was determination by adding 4 μl of culture to 96 μl of water, which was used to make five, 10-fold dilutions; 10 μl from each of these was spotted onto an LB+tetracycline agar plate. The remainder of the culture was made up to 11 ml with 2TY plus tetracycline and incubated at 37° C., 250 rpm overnight.
10 ml of overnight culture was reduced with 10 μl of 1 M TCEP for 20 min at RT followed by removal of the cells by centrifugation at 15000 g for five minutes. […]

T1 sequence (P03952 20-638): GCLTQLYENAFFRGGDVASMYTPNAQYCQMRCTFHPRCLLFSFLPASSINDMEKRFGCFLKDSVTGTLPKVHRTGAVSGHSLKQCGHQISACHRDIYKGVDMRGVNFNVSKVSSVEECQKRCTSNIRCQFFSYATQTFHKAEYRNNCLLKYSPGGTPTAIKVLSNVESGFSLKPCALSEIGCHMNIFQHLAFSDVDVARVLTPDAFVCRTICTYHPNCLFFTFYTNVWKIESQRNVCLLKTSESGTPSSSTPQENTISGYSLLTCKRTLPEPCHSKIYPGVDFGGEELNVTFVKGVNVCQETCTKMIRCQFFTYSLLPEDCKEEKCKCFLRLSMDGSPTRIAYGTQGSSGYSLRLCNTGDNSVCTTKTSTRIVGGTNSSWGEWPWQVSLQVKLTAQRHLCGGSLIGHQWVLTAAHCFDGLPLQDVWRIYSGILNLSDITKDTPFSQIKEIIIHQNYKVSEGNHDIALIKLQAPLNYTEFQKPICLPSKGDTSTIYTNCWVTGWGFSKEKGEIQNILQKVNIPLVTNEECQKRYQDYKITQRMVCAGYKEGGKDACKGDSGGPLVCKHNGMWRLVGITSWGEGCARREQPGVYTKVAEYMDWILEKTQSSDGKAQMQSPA

output titre (number of phages eluted at the end of the round) (R1, 100 nM kallikrein) | output titre (number of phages eluted at the end of the round) (R2, 33 nM kallikrein) | difference in titre using 9.75 nM kallikrein and using 0 nM kallikrein [fold] | output titre (number of phages eluted at the end of the round) (R3, 0 nM kallikrein) | output titre (number of phages eluted at the end of the round) (R3, 9.75 nM kallikrein) | Molecule
6.4e5 | 5.3e5 | 10 | 5.0e4 | 5.0e5 | CelfProcM5: C-terminal leaderA4.3 ProcM enzyme-leader fusion, 5-pair linker, used to modify leader-free SynLib1 (protein, Enzyme-Leader-Fusion) MSEEQLKAFIAKVQADTSLQEQLKAEGADVVAIAKAAGFTITTEDLNSHRQNLTDDELEGVAGGSASGSGSGSAMESPSSWKTSWLAAIAPDEPHKFDRRLEWDELSEENFFAALNSEPASLEEDDPCFEEALQDALEALKAAWDLPLLPVDNNLNRPFVDVWWPIRCHSAESLRQSFVSDSAGLADEIFDQLADSLLDRLCALGDQVLWEAFNKERTPGTMLLAHLGAAGDGSGPPVREHYERFIQSHRRNGLAPLLKEFPVLGRLIGTVLSLWFQGSVEMLQRICADRTVLQQCFAIPCGHHLKTVKQGLSDPHRGGRAVAVLEFADPNSTANSSMHVVYKPKDMAVDAAYQATLADLNTHSDLSPLRTLAIHNGNGYGYMEHVVHHLCANDKELTNFYFNAGRLTALLHLLGCTDCHHENLIACGDQLLLIDTETLLEADLPDHISDASSTTAQPKPSSLQKQFQRSVLRSGLLPQWMFLGESKLAIDISALGMSPPNKPERIALGWLGFNSDGMMPGRVSQPVEIPTSLPVGIGEVNPFDRFLEDFCDGFSMQSEALIKLRNRWLDVNGVLAHFAGLPRRIVLRATRVYFTIQRQQLEPTALRSPLAQALKLEQLTRSFLLAESKPLHWPIFAAEVKQMQHLDIPFFTHLIDADALQLGGLEQELPGFIQTSGLAAAYERLRNLDTDEIAFQLRLIRGAVEARELHTTPESSPTLPPPATPEALMSSSAETSLEAAKRIAHRLLELAIRDSQGQVEWLGMDLGADGESFSFGPVGLSLYGGSIGIAHLLQRLQAQQVSLMDADAIQTAILQPLVGLVDQPSDDGRRRWWRDQPLGLSGCGGTLLALTLQGEQAMANSLLAAALPRFIEADQQLDLIGGCAGLIGSLVQLGTESALQLALRAGDHLIAQQNEEGAWSSSSSQPGLLGFSHGTAGYAAALAHLHAFSADERYRTAAAAALAYERARFNKDAGNWPDYRSIGRDSDSDEPSFMASWCHGAPGIALGRACLWGTALWDEECTKEIGIGLQTTAAVSSVSTDHLCCGSLGLMVLLEMLSAGPWPIDNQLRSHCQDVAFQYRLQALQRCSAEPIKLRCFGTKEGLLVLPGFFTGLSGMGLALLEDDPSRAVVSQLISAGLWPTESASGSGSGSAMSEEQLKAFIAKVQADTSLQEQLKAEGADVVAIAKAAGFTITTEDLNSHRQNLTDDELEGVAGG
4.2e6 | 2.9e5 | 6.5 | 5.3e4 | 3.4e5 | CelfProcM10: C-terminal leaderA4.3 ProcM enzyme-leader fusion, 10-pair linker, used to modify leader-free SynLib1 (protein, Enzyme-Leader-Fusion) MSEEQLKAFIAKVQADTSLQEQLKAEGADVVAIAKAAGFTITTEDLNSHRQNLTDDELEGVAGGSASGSGSGSAMESPSSWKTSWLAAIAPDEPHKFDRRLEWDELSEENFFAALNSEPASLEEDDPCFEEALQDALEALKAAWDLPLLPVDNNLNRPFVDVWWPIRCHSAESLRQSFVSDSAGLADEIFDQLADSLLDRLCALGDQVLWEAFNKERTPGTMLLAHLGAAGDGSGPPVREHYERFIQSHRRNGLAPLLKEFPVLGRLIGTVLSLWFQGSVEMLQRICADRTVLQQCFAIPCGHHLKTVKQGLSDPHRGGRAVAVLEFADPNSTANSSMHVVYKPKDMAVDAAYQATLADLNTHSDLSPLRTLAIHNGNGYGYMEHVVHHLCANDKELTNFYFNAGRLTALLHLLGCTDCHHENLIACGDQLLLIDTETLLEADLPDHISDASSTTAQPKPSSLQKQFQRSVLRSGLLPQWMFLGESKLAIDISALGMSPPNKPERIALGWLGFNSDGMMPGRVSQPVEIPTSLPVGIGEVNPFDRFLEDFCDGFSMQSEALIKLRNRWLDVNGVLAHFAGLPRRIVLRATRVYFTIQRQQLEPTALRSPLAQALKLEQLTRSFLLAESKPLHWPIFAAEVKQMQHLDIPFFTHLIDADALQLGGLEQELPGFIQTSGLAAAYERLRNLDTDEIAFQLRLIRGAVEARELHTTPESSPTLPPPATPEALMSSSAETSLEAAKRIAHRLLELAIRDSQGQVEWLGMDLGADGESFSFGPVGLSLYGGSIGIAHLLQRLQAQQVSLMDADAIQTAILQPLVGLVDQPSDDGRRRWWRDQPLGLSGCGGTLLALTLQGEQAMANSLLAAALPRFIEADQQLDLIGGCAGLIGSLVQLGTESALQLALRAGDHLIAQQNEEGAWSSSSSQPGLLGFSHGTAGYAAALAHLHAFSADERYRTAAAAALAYERARFNKDAGNWPDYRSIGRDSDSDEPSFMASWCHGAPGIALGRACLWGTALWDEECTKEIGIGLQTTAAVSSVSTDHLCCGSLGLMVLLEMLSAGPWPIDNQLRSHCQDVAFQYRLQALQRCSAEPIKLRCFGTKEGLLVLPGFFTGLSGMGLALLEDDPSRAVVSQLISAGLWPTESASGSGSGSGSTSGSGSGSAMSEEQLKAFIAKVQADTSLQEQLKAEGADVVAIAKAAGFTITTEDLNSHRQNLTDDELEGVAGG
2.7e6 | 2.7e5 | 36 | 2.7e4 | 9.5e5 | CelfProcM15: C-terminal leaderA4.3 ProcM enzyme-leader fusion, 15-pair linker, used to modify leader-free SynLib1 (protein, Enzyme-Leader-Fusion) MSEEQLKAFIAKVQADTSLQEQLKAEGADVVAIAKAAGFTITTEDLNSHRQNLTDDELEGVAGGSASGSGSGSAMESPSSWKTSWLAAIAPDEPHKFDRRLEWDELSEENFFAALNSEPASLEEDDPCFEEALQDALEALKAAWDLPLLPVDNNLNRPFVDVWWPIRCHSAESLRQSFVSDSAGLADEIFDQLADSLLDRLCALGDQVLWEAFNKERTPGTMLLAHLGAAGDGSGPPVREHYERFIQSHRRNGLAPLLKEFPVLGRLIGTVLSLWFQGSVEMLQRICADRTVLQQCFAIPCGHHLKTVKQGLSDPHRGGRAVAVLEFADPNSTANSSMHVVYKPKDMAVDAAYQATLADLNTHSDLSPLRTLAIHNGNGYGYMEHVVHHLCANDKELTNFYFNAGRLTALLHLLGCTDCHHENLIACGDQLLLIDTETLLEADLPDHISDASSTTAQPKPSSLQKQFQRSVLRSGLLPQWMFLGESKLAIDISALGMSPPNKPERIALGWLGFNSDGMMPGRVSQPVEIPTSLPVGIGEVNPFDRFLEDFCDGFSMQSEALIKLRNRWLDVNGVLAHFAGLPRRIVLRATRVYFTIQRQQLEPTALRSPLAQALKLEQLTRSFLLAESKPLHWPIFAAEVKQMQHLDIPFFTHLIDADALQLGGLEQELPGFIQTSGLAAAYERLRNLDTDEIAFQLRLIRGAVEARELHTTPESSPTLPPPATPEALMSSSAETSLEAAKRIAHRLLELAIRDSQGQVEWLGMDLGADGESFSFGPVGLSLYGGSIGIAHLLQRLQAQQVSLMDADAIQTAILQPLVGLVDQPSDDGRRRWWRDQPLGLSGCGGTLLALTLQGEQAMANSLLAAALPRFIEADQQLDLIGGCAGLIGSLVQLGTESALQLALRAGDHLIAQQNEEGAWSSSSSQPGLLGFSHGTAGYAAALAHLHAFSADERYRTAAAAALAYERARFNKDAGNWPDYRSIGRDSDSDEPSFMASWCHGAPGIALGRACLWGTALWDEECTKEIGIGLQTTAAVSSVSTDHLCCGSLGLMVLLEMLSAGPWPIDNQLRSHCQDVAFQYRLQALQRCSAEPIKLRCFGTKEGLLVLPGFFTGLSGMGLALLEDDPSRAVVSQLISAGLWPTESASGSGSGSGSGSGSGSGSGSTSGSGSGSAMSEEQLKAFIAKVQADTSLQEQLKAEGADVVAIAKAAGFTITTEDLNSHRQNLTDDELEGVAGG
